Measurements as given in the supplement of paper PMC6757056.
± gives the standard deviation of the averaged measurements.

B1: library; a variant is named by its letters at N, in order (parent)
chain: GCUGUCACCGGUGUAUUACCCUAGUGGUCGACCGGUCUGAUGAGUCUNNNNNNAGACGAAACAGC

Assays:
[1] = variants of: B1; experiment: FACS-Seq fitted mean relative fluorescence mCherry/BFP without ligand (log10 relative fluorescence); ligand: hypoxanthine (xanthine aptamer); higher = higher reporter protein expression; conditions: HEK293T, ligand present: no
In short: (§1)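 After lentiviral transduction, HEK293T library cells bearing an mCherry ribozyme-switch reporter and an EF1α-BFP marker were enriched. They were then held for 48 h with or without ligand and sorted by mCherry/BFP into 6 bins, and each bin's genomic DNA was PCR-amplified, barcoded and MiSeq-sequenced. Fluorescence is expressed as a normalized fitted mean: the normal mean of log10(mCherry/BFP) bin counts, scaled to five spiked-in control ribozymes.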

[2] = variants of: B1; experiment: normalized RNA/DNA level with ligand (relative to sTRSVctl = 100) (log10 (% of sTRSVctl)); ligand: hypoxanthine (xanthine aptamer); higher = less ribozyme self-cleavage, higher mRNA level; conditions: ligand concentration (+) RNA-Seq: 5 mM, HEK293T, reporter: mCherry (pCS4076), ligand present: yes
In short: (§2)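 HEK293T cells were transfected with library plasmids carrying ribozyme switches linked to an mCherry reporter, or an eGFP reporter in some ligand experiments, at 4 µg per well of a 6-well plate, with any ligand added 1 h beforehand. After 72 h, total RNA was extracted with EDTA, reverse-transcribed, amplified, barcoded and sequenced. RNA level was defined as RNA reads over DNA reads, normalized to a spiked-in non-cleaving sequence or to the top-ranked sequences. That value was multiplied by 100 and converted to log10, the top set was 25 sequences, and only sequences with ≥100 DNA reads were retained.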

[3] = variants of: B1; experiment: normalized RNA/DNA level without ligand (relative to sTRSVctl = 100) (log10 (% of sTRSVctl)); ligand: hypoxanthine (xanthine aptamer); higher = less ribozyme self-cleavage, higher mRNA level; conditions: HEK293T, reporter: mCherry (pCS4076), ligand present: no
In short: as §2

[4] = variants of: B1; experiment: FACS-Seq fitted mean relative fluorescence mCherry/BFP with ligand (log10 relative fluorescence); ligand: hypoxanthine (xanthine aptamer); ligand concentration (+) FACS-Seq: 5 mM; higher = higher reporter protein expression; conditions: HEK293T, ligand present: yes
In short: as §1

Variant	FACS-Seq fitted mean (log10) [1]	normalized RNA/DNA level with ligand (log10) [2]	normalized RNA/DNA level without ligand (log10) [3]	FACS-Seq fitted mean (log10) [4]
GCUGUCACCGGUGUAUUACCCUAGUGGUCGACCGGUCUGAUGAGUCUGAGUAAAGACGAAACAGC	0.154 ± 0.061	1.878 ± 0.015	1.54 ± 0.023	0.427 ± 0.056
GCUGUCACCGGUGUAUUACCCUAGUGGUCGACCGGUCUGAUGAGUCUGAGUACAGACGAAACAGC	0.301 ± 0.14	1.907 ± 0.019	1.71 ± 0.041	0.51 ± 0.013
GCUGUCACCGGUGUAUUACCCUAGUGGUCGACCGGUCUGAUGAGUCUGAGGUGAGACGAAACAGC	0.14 ± 0.057	1.78 ± 0.031	1.33 ± 0.025	0.551 ± 0.026
GCUGUCACCGGUGUAUUACCCUAGUGGUCGACCGGUCUGAUGAGUCUAAGGGGAGACGAAACAGC	0.115 ± 0.014	1.78 ± 0.031	1.203 ± 0.002	0.386 ± 0.1
GCUGUCACCGGUGUAUUACCCUAGUGGUCGACCGGUCUGAUGAGUCUAAGGGUAGACGAAACAGC	0.236 ± 0.0092	1.835 ± 0.0086	1.54 ± 0.072	0.4 ± 0.093
GCUGUCACCGGUGUAUUACCCUAGUGGUCGACCGGUCUGAUGAGUCUAAGGGAAGACGAAACAGC	0.273 ± 0.057	1.83 ± 0.035	1.44 ± 0.017	0.545 ± 0.02
GCUGUCACCGGUGUAUUACCCUAGUGGUCGACCGGUCUGAUGAGUCUAAGGGCAGACGAAACAGC	0.365 ± 0.031	1.9146 ± 0.00071	1.75 ± 0.023	0.576 ± 0.022
GCUGUCACCGGUGUAUUACCCUAGUGGUCGACCGGUCUGAUGAGUCUGAGGGCAGACGAAACAGC	-0.0173 ± 0.076	1.87 ± 0.056	1.5 ± 0.021	0.367 ± 0.041
GCUGUCACCGGUGUAUUACCCUAGUGGUCGACCGGUCUGAUGAGUCUCAGUAGAGACGAAACAGC	0.475 ± 0.064	1.91 ± 0.11	1.57 ± 0.026	0.586 ± 0.0075
GCUGUCACCGGUGUAUUACCCUAGUGGUCGACCGGUCUGAUGAGUCUAAGUACAGACGAAACAGC	0.425 ± 0.075	1.89 ± 0.065	1.647 ± 0.015	0.673 ± 0.064
GCUGUCACCGGUGUAUUACCCUAGUGGUCGACCGGUCUGAUGAGUCUAAGUAGAGACGAAACAGC	-0.0595 ± 0.042	1.593 ± 0.013	1.1 ± 0.048	0.568 ± 0.023
GCUGUCACCGGUGUAUUACCCUAGUGGUCGACCGGUCUGAUGAGUCUAAGUAAAGACGAAACAGC	0.279 ± 0.049	1.86 ± 0.036	1.601 ± 0.012	0.457 ± 0.048
GCUGUCACCGGUGUAUUACCCUAGUGGUCGACCGGUCUGAUGAGUCUUAGGGGAGACGAAACAGC	0.118 ± 0.086	1.87 ± 0.037	1.5 ± 0.022	0.393 ± 0.018
GCUGUCACCGGUGUAUUACCCUAGUGGUCGACCGGUCUGAUGAGUCUUAGGGUAGACGAAACAGC	0.526 ± 0.034	1.84 ± 0.067	1.5 ± 0.027	0.632 ± 0.075
GCUGUCACCGGUGUAUUACCCUAGUGGUCGACCGGUCUGAUGAGUCUUAGGUCAGACGAAACAGC	0.588 ± 0.034	1.978 ± 0.0051	1.95 ± 0.054	0.577 ± 0.036
GCUGUCACCGGUGUAUUACCCUAGUGGUCGACCGGUCUGAUGAGUCUUAGGUGAGACGAAACAGC	0.399 ± 0.065	1.89 ± 0.079	1.61 ± 0.035	0.591 ± 0.012
GCUGUCACCGGUGUAUUACCCUAGUGGUCGACCGGUCUGAUGAGUCUAAGGUAAGACGAAACAGC	0.0361 ± 0.0026	1.767 ± 0.012	1.62 ± 0.021	0.162 ± 0.035
GCUGUCACCGGUGUAUUACCCUAGUGGUCGACCGGUCUGAUGAGUCUAAGGUUAGACGAAACAGC	0.941 ± 0.099	1.93 ± 0.021	1.7849 ± 0.0012	0.771 ± 0.19
GCUGUCACCGGUGUAUUACCCUAGUGGUCGACCGGUCUGAUGAGUCUAAGGUGAGACGAAACAGC	-0.0635 ± 0.037	1.666 ± 0.0026	1.22 ± 0.024	0.37 ± 0.077
GCUGUCACCGGUGUAUUACCCUAGUGGUCGACCGGUCUGAUGAGUCUCAGGGGAGACGAAACAGC	0.166 ± 0.0056	1.75 ± 0.036	1.23 ± 0.06	0.48135 ± 0.00032
GCUGUCACCGGUGUAUUACCCUAGUGGUCGACCGGUCUGAUGAGUCUCAGGUAAGACGAAACAGC	-0.0109 ± 0.015	1.757 ± 0.016	1.57 ± 0.014	0.148 ± 0.04
